OD450 and EC50 data for 2 molecules are collected here from patent CN115850477A (SUZHOU SHALI BIOTECHNOLOGY CO LTD, dated 2023).

In experiment [1] the target is Human 4-1BB/TNFRSF9 Protein, His Tag (ACRO Biosystems) (human) (UniProt Q07011). Nature of the experiment: ELISA, coated 4-1BB-his, scFv clone supernatant.
Experiment [2] addresses T1, Human 4-1BB/TNFRSF9 Protein, His Tag (ACRO Biosystems) (human, UniProt Q07011 24-186).
T1 construct: Bought from ACRO Biosystems; also called 4-1BB-his; not shown: His tag
T1 sequence (Q07011 24-186 limits assumed): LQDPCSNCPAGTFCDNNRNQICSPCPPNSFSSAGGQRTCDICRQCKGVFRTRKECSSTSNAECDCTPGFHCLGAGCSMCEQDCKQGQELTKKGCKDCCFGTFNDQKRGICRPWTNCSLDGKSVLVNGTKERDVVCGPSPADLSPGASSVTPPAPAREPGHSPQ
Nature of the experiment: ELISA, coated Human 4-1BB His Tag 1 ug/ml, antibody from 10 ug/ml in two-fold dilutions.

B1: GT1C8 (scFv克隆, 初筛离心上清) (scFv, V domains shown)
VH: QMQLQESGPSLVKPSQTLSLTCSVTGDSITSGYWTWIRKFPGNRLEYMGFKSYSGSTYYNPSLKSRISITRDTSKNQYYLQLNSVTTEDTATYYCARSLLWLGAMDYWGQGTSVTVSS
VL: DIVMTQSHKFMSTSVGDRVSITCKASQDVGTAVAWYQQKPGQSPKLLIYWASTRHTGVPDRFTGSGSGTDFTLTISNVQSEDLADYFCQQYSSYPYTFGGGTKLEMKR
The molecule B1 yielded an OD450 in experiment [1] of 1.12.

B2: GT1C8 huIgG1型抗体 (antibody, V domains shown)
VH: B1 VH
VL: B1 VL
notes: GT1C8 is the only antibody described, but the name GT1C8 is never tied to these numbers in words; also called GT1C8的huIgG1抗体; GT1C8克隆hIgG1形式抗体
For B2, in experiment [2], the midpoint of the response, the EC50, lay at 0.102 µg/mL.
